For orientation: Kd means a measure of binding affinity in units of concentration. Usually stoichiometry N stands for the number of molecules, sites or subunits per partner or assembly.

The results in this text go back to article PMC4245986 (Biochemistry, 2014).

Like-named read-outs stand apart in the source and are kept apart here. Ends that are not written are not given here. rhodamine = not defined here

The target in assay [1] is T1, Alexa488 labeled BIN1-FL (human, UniProt O00499-8 1-454, Alexa 488 C5-maleimide on endogenous cysteine residues).
T1 sequence (looked up): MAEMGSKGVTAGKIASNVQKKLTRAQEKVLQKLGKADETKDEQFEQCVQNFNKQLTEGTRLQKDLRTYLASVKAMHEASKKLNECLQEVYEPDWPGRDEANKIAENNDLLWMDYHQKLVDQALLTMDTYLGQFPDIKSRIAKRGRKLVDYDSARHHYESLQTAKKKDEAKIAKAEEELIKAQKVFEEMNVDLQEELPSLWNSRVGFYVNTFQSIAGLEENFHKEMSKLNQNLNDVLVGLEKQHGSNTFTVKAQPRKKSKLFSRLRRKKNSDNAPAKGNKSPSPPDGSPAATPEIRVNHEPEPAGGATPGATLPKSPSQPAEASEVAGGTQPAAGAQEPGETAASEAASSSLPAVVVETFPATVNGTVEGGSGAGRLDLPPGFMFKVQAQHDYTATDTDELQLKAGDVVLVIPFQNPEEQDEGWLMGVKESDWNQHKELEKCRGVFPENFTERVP
As to the kind of experiment: recruitment of fluorescent peptide to protein-coated giant vesicles.

In assay [2] the target is T2, GST-SH3 domain (derived from BIN1) (human).
T2 sequence (O00499 whole entry, looked up): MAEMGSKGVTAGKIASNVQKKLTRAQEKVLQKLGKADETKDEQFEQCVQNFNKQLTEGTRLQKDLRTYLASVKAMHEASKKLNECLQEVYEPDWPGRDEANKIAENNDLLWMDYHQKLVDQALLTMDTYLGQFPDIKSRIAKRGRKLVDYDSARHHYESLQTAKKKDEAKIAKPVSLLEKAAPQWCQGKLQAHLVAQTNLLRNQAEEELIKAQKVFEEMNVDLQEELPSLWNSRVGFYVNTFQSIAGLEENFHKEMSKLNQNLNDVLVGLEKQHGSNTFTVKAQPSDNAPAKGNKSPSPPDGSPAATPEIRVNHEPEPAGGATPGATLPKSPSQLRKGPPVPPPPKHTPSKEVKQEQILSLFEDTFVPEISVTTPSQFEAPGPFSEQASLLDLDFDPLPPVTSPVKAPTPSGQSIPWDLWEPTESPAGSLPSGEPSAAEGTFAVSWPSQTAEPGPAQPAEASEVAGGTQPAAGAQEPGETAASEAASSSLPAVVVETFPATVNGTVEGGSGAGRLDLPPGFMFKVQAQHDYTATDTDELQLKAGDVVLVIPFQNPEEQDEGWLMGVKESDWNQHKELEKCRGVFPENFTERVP
As to the kind of experiment: ITC. Background: Isothermal titration calorimetry measures the heat released or taken up as one component is titrated into another.

For assay [3] the target is unchanged. As to the kind of experiment: ITC. The source holds these as a separate data set.
The target is the same in assay [4]. As to the kind of experiment: ITC. This is another data set of the same source.
The target is the same in assay [5]. As to the kind of experiment: ITC. This is another data set of the same source.

Consider rhodamine-PPQIPSRPVRIPPGI (reading uncertain) [rhodamine-labeled PRD peptide], for which the binding result in assay [1] is on record as “binds”.

Regarding PPQIPSRPVRIPPGI [dynamin 2-derived proline-rich domain peptide], the Kd was determined as 68.3 µM in assay [2] and 13.7 µM in assay [3].

As for RKKSKLFSRLRRKKN [exon10 peptide], the Kd in assay [4] worked out at 11.3 µM; in assay [3], 3.9 µM. For the same molecule, the stoichiometry N in assay [5] and in assay [3] was 1 in each case.
